Measurements from article PMC4663176 (Insect biochemistry and molecular biology, 2015).
Like-named read-outs stand apart in the source and are kept apart here.

Assays:
[1] = target: T1, Arylalkylamine N-acyltransferase like 2 (AANATL2) (Drosophila melanogaster, UniProt Q9VMG0); assay: dead-end inhibition kinetics, DTNB assay of CoA release, purified enzyme; format: biochemical
T1 sequence (Q9VMG0 1-216): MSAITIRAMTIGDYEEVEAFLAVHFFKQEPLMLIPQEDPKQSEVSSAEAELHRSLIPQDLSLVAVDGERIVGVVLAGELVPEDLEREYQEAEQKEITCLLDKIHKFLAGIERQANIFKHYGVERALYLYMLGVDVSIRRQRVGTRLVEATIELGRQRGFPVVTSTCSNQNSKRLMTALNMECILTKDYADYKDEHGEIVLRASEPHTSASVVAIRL

[2] = target: T1, Arylalkylamine N-acyltransferase like 2 (AANATL2); assay: as above; format: biochemical; remark: listed apart in the source
steady-state kinetics [3] = substrate: CC(CN)c1ccccc1; assay: steady-state kinetics; format: biochemical, Drosophila melanogaster; conditions: acetyl-CoA; pH 8.0
steady-state kinetics [4] = substrate: COc1ccc(CCN)cc1; assay: steady-state kinetics; format: biochemical, Drosophila melanogaster; conditions: acetyl-CoA; pH 8.0
steady-state kinetics [5] = substrate: NCCCCc1ccccc1; assay: steady-state kinetics; format: biochemical, Drosophila melanogaster; conditions: acetyl-CoA; pH 8.0
steady-state kinetics [6] = substrate: NCCc1c[nH]c2ccc(OCc3ccccc3)cc12; assay: steady-state kinetics; format: biochemical, Drosophila melanogaster; conditions: acetyl-CoA; pH 8.0
steady-state kinetics [7] = substrate: NCCc1c[nH]c2ccccc12; assay: steady-state kinetics; format: biochemical, Drosophila melanogaster; conditions: acetyl-CoA; pH 8.0
purified protein [8] = substrate: CC(=O)SCCNC(=O)CCNC(=O)[C@H](O)C(C)(C)COP(=O)(O)OP(=O)(O)OC[C@H]1O[C@@H](n2cnc3c(N)ncnc32)[C@H](O)[C@@H]1OP(=O)(O)O; assay: purified protein; conditions: acetyl-CoA binds first in an ordered sequential mechanism
purified protein [9] = substrate: NCCc1cccc(C(F)(F)F)c1; assay: purified protein; conditions: acetyl-CoA; pH 8.0

OCCc1ccc(O)cc1 [tyrosol] was tested, and the Ki [1] was 52 ± 9 µM.

CCCCCCCC/C=C\CCCCCCCC(=O)SCCNC(=O)CCNC(=O)[C@H](O)C(C)(C)COP(=O)(O)OP(=O)(O)OC[C@H]1O[C@@H](n2cnc3c(N)ncnc32)[C@H](O)[C@@H]1OP(=O)(O)O [oleoyl-CoA] was tested, and the Ki [2] was 180 ± 30 nM.

B1: Arylalkylamine N-acyltransferase like 2 (AANATL2) (Drosophila melanogaster) (protein)
chain: MSAITIRAMTIGDYEEVEAFLAVHFFKQEPLMLIPQEDPKQSEVSSAEAELHRSLIPQDLSLVAVDGERIVGVVLAGELVPEDLEREYQEAEQKEITCLLDKIHKFLAGIERQANIFKHYGVERALYLYMLGVDVSIRRQRVGTRLVEATIELGRQRGFPVVTSTCSNQNSKRLMTALNMECILTKDYADYKDEHGEIVLRASEPHTSASVVAIRL
B1 was tested, and the Km (steady-state kinetics [3]) was 9 ± 1 µM, the kcat (steady-state kinetics [3]) was 2.9 ± 0.1 s⁻¹ and the kcat/Km (steady-state kinetics [3]) was 320000 ± 40000 M⁻¹ s⁻¹. It also gave a Km (steady-state kinetics [4]) of 10 ± 2 µM, a kcat (steady-state kinetics [4]) of 3.7 ± 0.1 s⁻¹ and a kcat/Km (steady-state kinetics [4]) of 370000 ± 60000 M⁻¹ s⁻¹. The Km (steady-state kinetics [5]) was 9.5 ± 0.4 µM, the kcat (steady-state kinetics [5]) was 1 ± 0.02 s⁻¹ and the kcat/Km (steady-state kinetics [5]) was 110000 ± 5000 M⁻¹ s⁻¹. For the same molecule, the Km (steady-state kinetics [6]) was 8 ± 1 µM, the kcat (steady-state kinetics [6]) was 2.8 ± 0.1 s⁻¹ and the kcat/Km (steady-state kinetics [6]) was 330000 ± 40000 M⁻¹ s⁻¹. It also gave a Km (steady-state kinetics [7]) of 14 ± 3 µM, a kcat (steady-state kinetics [7]) of 4.3 ± 0.3 s⁻¹ and a kcat/Km (steady-state kinetics [7]) of 310000 ± 60000 M⁻¹ s⁻¹. For the same molecule, the Km (purified protein [8]) was 5 ± 1 µM, the kcat (purified protein [8]) was 1.6 s⁻¹ and the kcat/Km (purified protein [8]) was 310000 M⁻¹ s⁻¹. For the same molecule, the Km (purified protein [9]) was 10 ± 2 µM, the kcat (purified protein [9]) was 4.5 ± 0.2 s⁻¹ and the kcat/Km (purified protein [9]) was 440000 ± 70000 M⁻¹ s⁻¹.
